Measured values published in US20090325873A1, “HUMAN GLP-1 MIMETIBODIES, COMPOSITIONS, METHODS AND USES” (CENTOCOR, INC., priority 2006, published 2009).

Target: GLP-1R on Rinm cells
Test: cell-based or functional assay

Substance: GLP-1 peptide (from UniProt P01275 98-127)
- cAMP activity in Rinm cells, EC50: 400 pM
